Measurements as given in patent US20240400703A1 (Genmab, published 2024).
Numbering of substitutions follows the chain as printed. Numbers in names are those of the source.

How the values were obtained:
[1] = target: T1, His-tagged human recombinant FcγRIIIa 176-Phe (Sino Biological, cat. no. 10389-H27H) (human, UniProt P08637 17-208); experiment: SPR, His-tagged FcγR captured on anti-His chip, antibody injected
T1 construct: also called FcγRIIIa[F]
Method: (§1) Biacore Series S Sensor Chips CM5 (Cytiva, cat. no. 29104988) were covalently coated with anti-His antibody using amine-coupling and His capture kits (Cytiva, cat. no. BR100050 and cat. no. 29234602) according to the manufacturer's instructions. […] After three start-up cycles of HBS-EP+ buffer, antibody samples were injected for 12 cycles per sample to generate binding curves using antibody concentration ranges of 0 to 3,000 nM for FcγRIa and 0 to 10,000 nM for the other FcγRs.
(§2) Dissociation from the anti-His-coated surface was performed by regeneration of the surface using 10 mM Glycine-HCl pH 1.5 (Cytiva, cat. no. BR100354).

[2] = target: T2, His-tagged human recombinant FcγRIIa 167-His (Sino Biological, cat. no. 10374-H08H1) (human, UniProt P12318 34-218); experiment: as above
T2 construct: also called FcγRIIa[H]
T2 sequence (looked up): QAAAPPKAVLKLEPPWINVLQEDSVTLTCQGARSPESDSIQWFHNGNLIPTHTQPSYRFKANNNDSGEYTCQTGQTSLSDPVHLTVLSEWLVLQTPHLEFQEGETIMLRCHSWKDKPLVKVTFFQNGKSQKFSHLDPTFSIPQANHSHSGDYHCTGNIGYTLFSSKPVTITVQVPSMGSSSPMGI
Method: as §1, §2

[3] = target: T3, His-tagged human recombinant FcγRIIb (Sino Biological, cat. no. 10259-H27H-B) (human, UniProt P31994 43-217); experiment: as above
T3 construct: also called FcγRII2b [sic]
T3 sequence (looked up): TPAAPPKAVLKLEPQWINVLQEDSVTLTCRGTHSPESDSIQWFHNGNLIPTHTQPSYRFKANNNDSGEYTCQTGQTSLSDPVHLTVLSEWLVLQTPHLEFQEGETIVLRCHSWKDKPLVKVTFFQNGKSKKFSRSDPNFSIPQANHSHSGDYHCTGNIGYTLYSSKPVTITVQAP
Method: as §1, §2

[4] = target: T4, His-tagged human recombinant FcγRIIIa 176-Val (Sino Biological, cat. no. 10389-H27H1-B) (human, UniProt P08637 17-208); experiment: as above
T4 construct: also called FcγRIIIa[V]
T4 sequence (P08637 17-208 F176V limits assumed): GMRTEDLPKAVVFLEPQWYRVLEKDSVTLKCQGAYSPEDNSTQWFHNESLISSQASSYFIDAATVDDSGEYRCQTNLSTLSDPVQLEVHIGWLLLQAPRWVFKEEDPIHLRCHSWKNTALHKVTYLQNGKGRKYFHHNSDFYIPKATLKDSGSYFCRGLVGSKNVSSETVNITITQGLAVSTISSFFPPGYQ
Method: as §1, §2

[5] = target: His-tagged human recombinant FcγRIa (Sino Biological, cat. no. 10256-H08S-B) (human, UniProt P12314 16-288); experiment: as above
His-tagged human recombinant FcγRIa (Sino Biological, cat. no. 10256-H08S-B), sequence (P12314 16-288 limits assumed, stated change not applied): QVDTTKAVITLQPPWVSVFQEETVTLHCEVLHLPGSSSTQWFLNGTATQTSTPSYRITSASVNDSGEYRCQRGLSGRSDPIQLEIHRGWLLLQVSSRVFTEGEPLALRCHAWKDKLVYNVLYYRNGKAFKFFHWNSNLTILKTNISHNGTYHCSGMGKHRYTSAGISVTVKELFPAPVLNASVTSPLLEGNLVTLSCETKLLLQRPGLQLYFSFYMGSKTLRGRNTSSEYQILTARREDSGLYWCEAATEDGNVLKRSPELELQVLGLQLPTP
Method: as §1, §2

[6] = target: T5, His-tagged human recombinant FcγRIIa 167-Arg (Sino Biological, cat. no. 10374-H27H) (human, UniProt P12318 34-218); experiment: as above
T5 construct: also called FcγRIIa[R]
T5 sequence (looked up): T2 sequence (looked up) with H134R
Method: as §1, §2

[7] = target: T6, human OX40 expressed on cells (human, UniProt P43489 29-277); experiment: flow cytometry, human T cells activated 2 days with anti-CD3/CD28 beads, 2 µg/mL sOX40L, anti-mouse Fc detection
T6 construct: also called CD134; TNFRSF4
T6 sequence: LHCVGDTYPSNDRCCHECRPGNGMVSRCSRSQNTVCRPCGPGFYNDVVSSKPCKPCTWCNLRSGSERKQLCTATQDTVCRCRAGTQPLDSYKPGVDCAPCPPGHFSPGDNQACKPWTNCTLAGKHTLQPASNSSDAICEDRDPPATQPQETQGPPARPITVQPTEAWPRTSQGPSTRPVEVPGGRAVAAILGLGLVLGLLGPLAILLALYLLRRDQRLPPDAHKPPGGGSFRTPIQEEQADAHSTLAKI
Method: Stimulated PBMCs were pelleted, resuspended in FACS buffer 2 (DPBS with 2% heat-inactivated FBS [Sigma-Aldrich, cat. no. F7524] and 2 mM EDTA [Sigma-Aldrich, cat. no. 03690]), and seeded (100,000 cells/well) in round-bottom 96-well plates (VWR International GmbH, cat. no. 734-197). […] Next, cells were washed twice in FACS buffer, and incubated with 30 μL of the antibody panel described in Table 11 diluted in FACS buffer 2 containing 1:1,500 Fixable Viability Stain eFluor 780 at 4° C. for 20 min, protected from light. The cells were subsequently washed twice with 120-150 μL FACS buffer 2 and measured on a BD FACSCelesta flow cytometer using a BD High Throughput sampler and subsequent analysis was done using FlowJo software.

[8] = target: T7, cynomolgus monkey OX40 expressed on HEK293F cells (cynomolgus monkey (Macaca fascicularis), UniProt P43489 29-277 (human entry)); experiment: flow cytometry, OX40-transfected HEK293F cells, gMFI (PE)
T7 construct: full-length entry
T7 chain: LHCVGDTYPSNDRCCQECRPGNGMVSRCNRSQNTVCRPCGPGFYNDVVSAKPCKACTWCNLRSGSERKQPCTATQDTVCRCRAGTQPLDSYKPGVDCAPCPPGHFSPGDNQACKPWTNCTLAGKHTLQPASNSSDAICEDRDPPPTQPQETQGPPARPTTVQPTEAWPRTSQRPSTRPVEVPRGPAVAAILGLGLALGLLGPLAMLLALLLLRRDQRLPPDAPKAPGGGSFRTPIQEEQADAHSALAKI
Method: (§3) Transfected cells were seeded in 96-well plates (30,000 cells/well; ThermoFisher, cat. no. 163320) for sequential incubations, with washing steps in between using fluorescence-activated cell sorting (FACS) buffer 1 (phosphate buffered saline [PBS; Lonza, cat. no. BE17-517Q] supplemented with 0.1% bovine serum albumin [BSA; Roche, cat. no. 10735086001] and 0.02% sodium azide [NaN₃; Bio-World, cat. no. 41920044-3]) supplemented with 2 mM ethylenediaminetetraacetic acid (EDTA; Sigma-Aldrich, cat. no. 03690). […] Cells were then washed using EDTA-supplemented FACS buffer 1, resuspended in a 30 μL solution of viability marker ToPro-3 (Invitrogen, cat. no. T3605, diluted 1:10,000) in EDTA-supplemented FACS buffer 1, and subsequently analyzed on an iQue® 3 flow cytometer (Satorius). Data were analyzed using FlowJo software and were visualized using GraphPad Prism.

[9] = target: T6, human OX40 expressed on cells; experiment: as above
Method: as §3

[10] = target: T8, mouse OX40 expressed on ExpiCHO-S cells (mouse, UniProt P47741 20-272); experiment: flow cytometry, transfected ExpiCHO-S cells, gMFI (PE)
T8 construct: full-length entry; also called OX40mm; wild-type mouse OX40
T8 sequence: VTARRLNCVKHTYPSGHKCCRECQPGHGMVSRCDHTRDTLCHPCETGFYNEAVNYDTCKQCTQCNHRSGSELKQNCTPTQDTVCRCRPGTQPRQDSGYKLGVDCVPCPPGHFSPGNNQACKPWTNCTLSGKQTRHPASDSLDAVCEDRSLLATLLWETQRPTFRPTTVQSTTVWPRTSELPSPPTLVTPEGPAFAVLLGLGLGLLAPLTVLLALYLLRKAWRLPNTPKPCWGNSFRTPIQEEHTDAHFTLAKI

[11] = target: T9, human OX40 with mouse CRD3 (human with mouse CRD3, UniProt P43489 29-277); experiment: as above
T9 construct: on ExpiCHO-S cells; also called OX40-CRD3mm; Shuffle 3
T9 chain: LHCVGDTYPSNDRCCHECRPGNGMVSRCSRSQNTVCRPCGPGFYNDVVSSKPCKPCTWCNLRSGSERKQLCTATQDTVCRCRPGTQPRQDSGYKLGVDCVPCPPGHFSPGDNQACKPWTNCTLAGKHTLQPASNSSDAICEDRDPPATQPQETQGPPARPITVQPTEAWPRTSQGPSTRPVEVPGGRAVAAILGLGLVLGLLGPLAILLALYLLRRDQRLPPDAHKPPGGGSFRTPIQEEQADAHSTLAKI

[12] = target: T10, human OX40 with mouse CRD2 (human with mouse CRD2, UniProt P43489 29-277); experiment: as above
T10 construct: on ExpiCHO-S cells; also called OX40-CRD2mm; Shuffle 2
T10 chain: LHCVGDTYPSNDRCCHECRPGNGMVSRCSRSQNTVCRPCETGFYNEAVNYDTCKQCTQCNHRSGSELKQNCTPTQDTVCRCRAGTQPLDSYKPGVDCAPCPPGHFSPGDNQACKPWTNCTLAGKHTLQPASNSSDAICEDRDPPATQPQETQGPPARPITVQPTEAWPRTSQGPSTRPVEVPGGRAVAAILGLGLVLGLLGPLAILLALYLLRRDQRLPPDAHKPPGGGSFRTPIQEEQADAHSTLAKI

[13] = target: T11, human OX40 with mouse CRD1 (human with mouse CRD1, UniProt P43489 29-277); experiment: as above
T11 construct: on ExpiCHO-S cells; also called OX40-CRD1mm; Shuffle 1
T11 chain: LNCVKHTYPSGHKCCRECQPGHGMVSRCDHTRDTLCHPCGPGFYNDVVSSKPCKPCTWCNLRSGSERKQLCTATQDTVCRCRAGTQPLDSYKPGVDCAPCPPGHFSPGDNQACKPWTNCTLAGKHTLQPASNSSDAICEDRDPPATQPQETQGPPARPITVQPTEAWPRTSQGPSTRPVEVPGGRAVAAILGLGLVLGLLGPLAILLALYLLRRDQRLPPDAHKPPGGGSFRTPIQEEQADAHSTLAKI

[14] = target: T12, human OX40 with mouse CRD4 (human with mouse CRD4, UniProt P43489 29-277); experiment: as above
T12 construct: on ExpiCHO-S cells; also called OX40-CRD4mm; Shuffle 4
T12 chain: T6 sequence with D109N, A122S, H125Q, L127R, Q128H, N132D, S134L, I137V
Method: The four shuffle constructs, as well as wild-type human and mouse OX40 were transiently expressed on ExpiCHO-S cells using the ExpiFectamine™ CHO Transfection Kit (ThermoFisher, cat. no. A29131), according to the manufacturer's protocol. […] Next, cells were washed twice in FACS buffer 1, were resuspended in a 30 μL solution of viability marker ToPro-3 (Invitrogen, cat. no. T3605, diluted 1:10,000) in FACS buffer 1 supplemented with 2 mM EDTA, and were analyzed on an iQue Screener Plus (Intellicyt Corporation, USA). Data were analyzed using FlowJo software and visualized using GraphPad Prism.

[15] = target: T13, human FcγRIa expressed on cells (human, UniProt P12314 16-374); experiment: flow cytometry, FcγRIa-expressing human monocyte-derived M2c-like macrophages, 15 min
T13 construct: whole, on cells; also called FcγR1a; CD64
T13 sequence (P12314 16-374): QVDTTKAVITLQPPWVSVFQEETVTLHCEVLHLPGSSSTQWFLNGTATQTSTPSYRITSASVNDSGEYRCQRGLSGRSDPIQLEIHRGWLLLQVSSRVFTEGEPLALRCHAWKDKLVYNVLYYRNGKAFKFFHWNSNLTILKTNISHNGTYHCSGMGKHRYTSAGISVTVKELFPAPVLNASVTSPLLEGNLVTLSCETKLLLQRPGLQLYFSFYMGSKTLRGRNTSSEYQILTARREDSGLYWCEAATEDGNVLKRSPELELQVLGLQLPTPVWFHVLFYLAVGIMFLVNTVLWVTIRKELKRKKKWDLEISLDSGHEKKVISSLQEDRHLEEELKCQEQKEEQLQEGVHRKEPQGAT

T1 sequence (P08637 17-208 limits assumed): as the sequence (P08637 17-208 F176V limits assumed) above, with V160F counted along it

B1: IgG1-CD134-003-HC6LC2-E345R (antibody)
heavy: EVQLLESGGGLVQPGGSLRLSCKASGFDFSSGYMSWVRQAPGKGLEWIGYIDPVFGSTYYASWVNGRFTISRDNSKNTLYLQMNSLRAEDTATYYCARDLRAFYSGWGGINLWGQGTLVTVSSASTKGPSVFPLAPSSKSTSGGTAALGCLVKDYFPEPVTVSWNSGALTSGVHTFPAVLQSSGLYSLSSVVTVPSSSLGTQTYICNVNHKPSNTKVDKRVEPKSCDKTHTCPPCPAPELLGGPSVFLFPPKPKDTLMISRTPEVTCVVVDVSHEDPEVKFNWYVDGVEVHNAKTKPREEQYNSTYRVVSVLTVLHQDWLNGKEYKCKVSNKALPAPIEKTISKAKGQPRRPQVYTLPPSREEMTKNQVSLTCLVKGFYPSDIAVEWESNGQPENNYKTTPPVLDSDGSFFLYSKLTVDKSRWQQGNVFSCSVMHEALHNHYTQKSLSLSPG
light: AAVLTQSPSSLSASVGDRVTITCQSSQIVVNNNFLSWYQQKPGKAPKLLIYDASNLASGVPDRFSGSGSGTDFTFTISSLQPEDIATYYCLGGYDDDAENAFGGGTKVEIKRTVAAPSVFIFPPSDEQLKSGTASVVCLLNNFYPREAKVQWKVDNALQSGNSQESVTEQDSKDSTYSLSSTLTLSKADYEKHKVYACEVTHQGLSSPVTKSFNRGEC
notes: also called variant of IgG1-CD134-003-HC6LC2-RR without Fc-inertness mutation; copies: 2 + 2
B1: binds [1]; binds [2]; binds [3]. B1: binds [4]; binds [5]; binds [6].

B2: murine Fc-tagged human sOX40L (Sino Biological, cat. no. 13127-H04H) (Fc fusion, UniProt P23510 51-183, looked up)
chain: QVSHRYPRIQSIKVQFTEYKKEKGFILTSQKEDEIMKVQNNSVIINCDGFYLISLKGYFSQEVNISLHYQKDEEPLFQLKKVRSVNSLMVASLTYKDKVYLNVTTDNTSLDDFHVNGGELILIHQNPGEFCVL
notes: bought protein; also called soluble OX40L; not shown: murine Fc tag
B2: binds [7].

B3: IgG1-b12-RR (antibody)
heavy: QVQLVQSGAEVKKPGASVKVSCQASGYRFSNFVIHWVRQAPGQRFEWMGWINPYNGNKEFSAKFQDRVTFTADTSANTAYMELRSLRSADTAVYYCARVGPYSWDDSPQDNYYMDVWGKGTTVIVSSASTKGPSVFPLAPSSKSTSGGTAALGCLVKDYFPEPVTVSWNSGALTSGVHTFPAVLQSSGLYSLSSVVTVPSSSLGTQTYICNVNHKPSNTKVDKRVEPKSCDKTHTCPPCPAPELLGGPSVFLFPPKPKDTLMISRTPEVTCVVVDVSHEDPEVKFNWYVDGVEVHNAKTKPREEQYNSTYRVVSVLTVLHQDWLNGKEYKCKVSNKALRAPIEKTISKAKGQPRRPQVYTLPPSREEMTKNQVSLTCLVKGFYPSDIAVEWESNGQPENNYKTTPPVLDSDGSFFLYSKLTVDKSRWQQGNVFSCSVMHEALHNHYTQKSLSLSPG
VL: EIVLTQSPGTLSLSPGERATFSCRSSHSIRSRRVAWYQHKPGQAPRLVIHGVSNRASGISDRFSGSGSGTDFTLTITRVEPEDFALYYCQVYGASSYTFGQGTKLERK
notes: also called IgG1-b12-P329R-E345R
B3: no binding (tested: 50 µg/mL) [8]; no binding (tested: 50 µg/mL) [9]; no binding (tested: 50 µg/mL) [10]. B3: no binding (tested: 50 µg/mL) [11]; no binding (tested: 50 µg/mL) [12]; no binding (tested: 50 µg/mL) [13]. B3: no binding (tested: 50 µg/mL) [14]; no binding (tested: 10 µg/mL) [15].
